{"source": "paper PMC9355583", "about": "“Validation of the solution structure of dimerization domain of PRC1” (PLoS ONE, 2022)", "target": "the molecule itself", "assay": "cross-linking; PEG5 cross-linker (0.1 M-1 M), protein at 20 nM and 50 nM, 50 mM PBS, 50 mM NaCl, pH 7.0, 25 °C, 30 min, read by SDS-PAGE", "data": [{"protein": "PRC1 dimerization domain (PRC1-DD, aa: 1-65) (domain or fragment, human, UniProt O43663-1 1-65, looked up, Protein Regulator of Cytokinesis 1 (PRC1), human, isoform 1 (NP_003972; full length 620 residues), N-terminal dimerization domain, residues 1-65; Cloned between NdeI and XhoI of pET-21a with a C-terminal His-tag; no cleavage of the tag is described; For NMR the protein was 15N- or 15N/13C-labelled; also called DD WT; PRC-DD; source: E. coli BL21 (DE3) or Rosseta (DE3), purified (His-Trap HP, …)) MRRSEVLAEESIVCLQKALNHLREIWELIGIPEDQRLQRTEVVKKHIKELLDMMIAEEESLKERL", "values": [{"measurement": "stoichiometry N", "result": 2}]}]}
